Data as given in the supplement of paper PMC9170038.

Test system: MS2 coat protein
Experiment: apparent KD of MS2 coat protein; designed switch direction (-1 OFF switch, 1 ON switch): -1; higher = weaker reporter binding
Summary of the method: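 Designed RNA switches sharing common flanks were transcribed on Illumina chips by stalled E. coli RNA polymerase. They were titrated with SNAP-549-labelled MS2 coat protein, from 0.7 or 1.5 nM doubling to 3 µM, in Tris-HCl pH 7.5 buffer with KCl, MgCl2, BSA, DTT, tRNA and Tween-20. Titrations ran without input, with 200 uM small-molecule ligand, or with an oligonucleotide input. The apparent KD of each design is the median over its clusters, after curve-fitting of normalised cluster fluorescence.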

[1] = Eterna round: R95, input ligand: microRNA oligo, concentration not stated
[2] = Eterna round: R95, input ligand: FMN 200 uM
[3] = Eterna round: R95, input ligand: none
[4] = input ligand: microRNA oligo, concentration not stated

## CUUAAGGCAGGAUAUGCUUUUUGUGACAUGAGGAUCACCCAUGUGAUGCAGUUUGGGUGUGCAGAAGGGCCUGAGU [JR_E5_Sub033] (puzzle: Exclusion 5)
[1]
  apparent KD of MS2 coat protein: 378 nM

## CUUACACAUGAGGAUCACCCAUGUGAGGAUAUGCGUACGUUGUCCGUAGGCGACGUGCGCAGAAGGCGCUUGGU [JL-ex1-3.19 Eli mod] (puzzle: Exclusion 1)
[1]
  apparent KD of MS2 coat protein: 55.3 nM

## CUUAGACAUGAGGAUCACCCAUGUGAGGAUAUGAAAUUAAUUAAGUAUGAAGUAUGAAUCAGAAGGCACAUAUG [Mat - Mod of Hyphema D34] (puzzle: Exclusion 1)
[2]
  apparent KD of MS2 coat protein: 61.7 nM
[1]
  apparent KD of MS2 coat protein: 92.1 nM
[3]
  apparent KD of MS2 coat protein: 81.6 nM

## CUUAGCCUAAAAUCACGCAAGCUUUUUACUUGUCUUAAGACAUGAGGAUCACCCAUGUCCGGGCUGAACUUAUGGAA [Zaortequ] (puzzle: Sensor v3, turn-off variant 2)
[2]
  apparent KD of MS2 coat protein: 21.2 nM
[1]
  apparent KD of MS2 coat protein: 269 nM
[3]
  apparent KD of MS2 coat protein: 21.4 nM

## CUUAUGUGAGGAUAUCAGUAGUGAUACGAUAGUAUUACUGCUGAGAAGGCACAUGAGGAUCACCCAUGUUCCUC [Exclusion 4 - Mod Omei Ex4 344 mod 4 v.2] (puzzle: Exclusion 4)
[1]
  apparent KD of MS2 coat protein: 91.6 nM

## CUUAUGUGAGGAUAUGCCUGGCCGUGAGGCCAAAUUGAUUAGCAGAAGGCACAUGAGGAUCACCCAUGUGCGGG [jl-ex4-4.67 ViennaUCT mod] (Eterna round: R97, puzzle: Exclusion 4)
Input ligand: FMN 200 uM
  apparent KD of MS2 coat protein: 340 nM
Input ligand: none
  apparent KD of MS2 coat protein: 479 nM

## CUUCAAGCACCAGAGCUCACACUUAUACCUGCUCUGGUGACAUGAGGAUCACCCAUGUUUUUUGCCCGUCUUAUCUU [Sensor v3, turn-off variant 2 (MOD of Leso v.2)] (Eterna round: R96, puzzle: Sensor v3, turn-off variant 2)
Input ligand: FMN 200 uM
  apparent KD of MS2 coat protein: 178 nM
[4]
  apparent KD of MS2 coat protein: 101 nM
Input ligand: none
  apparent KD of MS2 coat protein: 250 nM

## CUUCAAGCACCAGAGCUCACACUUAUACCUGCUCUGGUGACAUGAGGAUCACCCAUGUUUUUUGCCCGUCUUAUCUU [Sensor v3, turn-off variant 2 (MOD of Leso v.2)] (puzzle: Sensor v3, turn-off variant 2)
[2]
  apparent KD of MS2 coat protein: 92.8 nM
[1]
  apparent KD of MS2 coat protein: 276 nM
[3]
  apparent KD of MS2 coat protein: 115 nM

## CUUCACCCACUAGAGCUCACCCACAAACCUACUCUAGUGACAUGAGGAUCACCCAUGUUUUUUGCCCGUCUUAUCUU [Qugeenerce] (puzzle: Sensor v3, turn-off variant 2)
[2]
  apparent KD of MS2 coat protein: 40.2 nM
[1]
  apparent KD of MS2 coat protein: 184 nM
[3]
  apparent KD of MS2 coat protein: 41.4 nM

## CUUCGACAUGAGGAUCACCCAUGUCAGGAUAUUGUGUAUCGGGUGUUGGACGGAUAGGCAAGAAGGGAUGUGUG [LRO-Excl1-05] (puzzle: Exclusion 1)
[1]
  apparent KD of MS2 coat protein: 27.8 nM

## CUUCUCAGAGUCAGGAUAUAGUCGAAAGGGCUAGACUAGAAGGGACAUGAGGAUCACCCAUGUAAAAUAUCAAA [Razalequ] (puzzle: Brourd's mod of Exclusion 4)
[1]
  apparent KD of MS2 coat protein: 20.4 nM

## CUUCUCGUUGUGAGGAUAUCGUUUUCGUCUCGGAUCGAGAAGGCACAUGAGGAUCACCCAUGUUUGUUGUGGUU [JR_BMOE4_Sub090] (puzzle: Brourd's mod of Exclusion 4)
[1]
  apparent KD of MS2 coat protein: 87.9 nM

## CUUGACUGAGGAUAUUGUGCUGCUGACAUGAGGAUCACCCAUGUAUGUUAACUCGGCCGUCGAGAAGGCAGAAAGG [BotMod 19 - Jieux - Exclusion 5] (Eterna round: R97, puzzle: Exclusion 5)
Input ligand: FMN 200 uM
  apparent KD of MS2 coat protein: 14.2 nM
Input ligand: none
  apparent KD of MS2 coat protein: 40.8 nM

## CUUGUAAAUGUGAGGAUAUACUGUUAGUAAAGUUAGUAGAAGGUACAUGAGGAUCACCCAUGUUAAUUACUCUA [JR_BME4_Sub047] (puzzle: Brourd's mod of Exclusion 4)
[2]
  apparent KD of MS2 coat protein: 15.9 nM
[1]
  apparent KD of MS2 coat protein: 13.2 nM
[3]
  apparent KD of MS2 coat protein: 14.5 nM

## CUUGUAUAUCAGGAUAUGAUUUUAUAUAUUGGAUCAGAAGGGAUAACAUGAGGAUCACCCAUGUUGUGGAGUGA [JR_Ex6_Sub038] (Eterna round: R97, puzzle: Exclusion 6)
Input ligand: FMN 200 uM
  apparent KD of MS2 coat protein: 90.5 nM
Input ligand: none
  apparent KD of MS2 coat protein: 204 nM

## CUUGUUUAUGUGAGGAUAUACUGUUAGUAAUGUUUGUAGAAGGUACAUGAGGAUCACCCAUGUUUAUUUCCUUU [JR_BME4_Sub045] (puzzle: Brourd's mod of Exclusion 4)
[1]
  apparent KD of MS2 coat protein: 13.8 nM

## CUUUACAUAGGAUAUAGUUGCUUUUACAUGAGGAUCACCCAUGUCUCUCCUCUCUCUCUUCUAGAAGGAUGUUUCU [JR_E5_Sub010] (puzzle: Exclusion 5)
[1]
  apparent KD of MS2 coat protein: 56 nM

## CUUUCGUGAGGAUAUGUGGCUAAAAUCGUGAGAUCGAGGCUACAGAAGGCACAUGAGGAUCACCCAUGUUCCUC [salish99_ex4_r4_212] (Eterna round: R97, puzzle: Exclusion 4)
Input ligand: FMN 200 uM
  apparent KD of MS2 coat protein: 379 nM
Input ligand: none
  apparent KD of MS2 coat protein: 38.3 nM

## CUUUUGGCAGGAUAUGCUUUUUUUGACAUGAGGAUCACCCAUGUGAUGCAUUUUGGGUUUGCAGAAGGGCCUGAGU [JR_E5_Sub036] (puzzle: Exclusion 5)
[1]
  apparent KD of MS2 coat protein: 56.9 nM

## CUUUUGUCAGGAUAUGAGUAGUAGAACAAUAGUACUACUACUCAGAAGGGACAUGAGGAUCACCCAUGUUCCUC [Fiskers Ex 4 Super stable 44 mod 19] (puzzle: Exclusion 4)
[1]
  apparent KD of MS2 coat protein: 16.2 nM

## CUUUUGUGAGGAUAUCAGGUGUGCUAGCGUACUGGUACAUCUGAGAAGGCACAUGAGGAUCACCCAUGUUUCUU [JL-ex4-3.19 Brourd mod] (puzzle: Exclusion 4)
[1]
  apparent KD of MS2 coat protein: 27.1 nM

## CUUUUGUGAGGAUAUCAGUAGUAAAAAAAUAAAAUUACUACUGAGAAGGCACAUGAGGAUCACCCAUGUUCCUC [EX4 344: Super Stable 44] (Eterna round: R96, puzzle: Exclusion 4)
Input ligand: FMN 200 uM
  apparent KD of MS2 coat protein: 343 nM
[4]
  apparent KD of MS2 coat protein: 36.3 nM
Input ligand: none
  apparent KD of MS2 coat protein: 42.4 nM

## CUUUUGUGAGGAUAUCAGUAGUAAAAAAAUAAAAUUACUACUGAGAAGGCACAUGAGGAUCACCCAUGUUCCUC [salish99_ex4_r3_009] (puzzle: Exclusion 4)
[2]
  apparent KD of MS2 coat protein: 257 nM
[1]
  apparent KD of MS2 coat protein: 39.7 nM
[3]
  apparent KD of MS2 coat protein: 38.4 nM

## CUUUUGUGAGGAUAUCAGUAGUAAAGAAAUAAAAUUACUACUGAGAAGGCACAUGAGGAUCACCCAUGUUCCUC [Mat - Exclusion 4 - Mod of Salish - D62] (puzzle: Exclusion 4)
[1]
  apparent KD of MS2 coat protein: 36.2 nM

## CUUUUGUGAGGAUAUCAGUAGUAAAUAAAUAAUAUUACUACUGAGAAGGCACAUGAGGAUCACCCAUGUUCCUC [salish99_ex3_r3_083] (Eterna round: R96, puzzle: Exclusion 4)
Input ligand: FMN 200 uM
  apparent KD of MS2 coat protein: 385 nM
[4]
  apparent KD of MS2 coat protein: 39 nM
Input ligand: none
  apparent KD of MS2 coat protein: 45.3 nM

## CUUUUGUGAGGAUAUCAGUAGUAAAUAAAUAAUAUUACUACUGAGAAGGCACAUGAGGAUCACCCAUGUUCCUC [salish99_ex3_r3_083] (puzzle: Exclusion 4)
[1]
  apparent KD of MS2 coat protein: 42.3 nM

## CUUUUGUGAGGAUAUCAGUAGUAAAUAAAUAUAAUUACUACUGAGAAGGCACAUGAGGAUCACCCAUGUUCCUC [salish99_ex3_r3_082] (puzzle: Exclusion 4)
[1]
  apparent KD of MS2 coat protein: 38.2 nM

## CUUUUGUGAGGAUAUCAGUAGUAAUACAAUAGUAUUACUACUGAGAAGGCACAUGAGGAUCACCCAUGUUCCUU [Ex4 344 Omei mod 1] (puzzle: Exclusion 4)
[1]
  apparent KD of MS2 coat protein: 14.5 nM

## CUUUUGUGAGGAUAUCAGUAGUAUAAAAUAAAAUAUACUACUGAGAAGGCACAUGAGGAUCACCCAUGUUCCUC [Mat - Exclusion 4 - Mod of Salish - D71] (puzzle: Exclusion 4)
[1]
  apparent KD of MS2 coat protein: 38.5 nM

## CUUUUGUGAGGAUAUCAGUAUUAAAAAAAUAAAAUUACUACUGAGAAGGCACAUGAGGAUCACCCAUGUUCCUC [salish99_ex4_r3_032] (puzzle: Exclusion 4)
[1]
  apparent KD of MS2 coat protein: 34.4 nM

## CUUUUGUGAGGAUAUCAGUUGUAAAUAAAUAAAAUUACUACUGAGAAGGCACAUGAGGAUCACCCAUGUUCCUC [salish99_ex3_r3_073] (puzzle: Exclusion 4)
[1]
  apparent KD of MS2 coat protein: 37.8 nM

## CUUUUGUGAGGAUAUCGGUAGUAAUACAAUAGUAUUACUACUGAGAAGGCACAUGAGGAUCACCCAUGUUCCUC [Ex4 344 Omei mod 9] (puzzle: Exclusion 4)
[1]
  apparent KD of MS2 coat protein: 43 nM

## CUUUUGUGAGGAUAUGGUAACGAUGACAUGAGGAUCACCCAUGUAACAUGGGACUUGAGACUAGAAGGCACUAACG [JR_Ex5_Sub025] (Eterna round: R97, puzzle: Exclusion 5)
Input ligand: FMN 200 uM
  apparent KD of MS2 coat protein: 94.7 nM
Input ligand: none
  apparent KD of MS2 coat protein: 134 nM

## CUUUUGUGAGGAUAUUAGUAGUAAAUAAAUAAAAUUAUUACUGAGAAGGUACAUGAGGAUCACCCAUGUUCCUU [Salish 062 v21] (Eterna round: R97, puzzle: Exclusion 4)
Input ligand: FMN 200 uM
  apparent KD of MS2 coat protein: 12.8 nM
Input ligand: none
  apparent KD of MS2 coat protein: 19.9 nM

## CUUUUGUGAGGAUAUUAGUAGUAAAUAAAUAAAUUUACUACUGAGAAGGCACAUGAGGAUCACCCAUGUUCCUC [salish99_ex4_r3_060] (Eterna round: R96, puzzle: Exclusion 4)
Input ligand: FMN 200 uM
  apparent KD of MS2 coat protein: 703 nM
[4]
  apparent KD of MS2 coat protein: 38.5 nM
Input ligand: none
  apparent KD of MS2 coat protein: 40.9 nM

## CUUUUGUGAGGAUAUUAGUAGUAAAUAAAUAAAUUUACUACUGAGAAGGCACAUGAGGAUCACCCAUGUUCCUC [salish99_ex4_r3_060] (puzzle: Exclusion 4)
[1]
  apparent KD of MS2 coat protein: 33.7 nM

## CUUUUGUGAGGAUAUUAGUAGUUUAUAAUUAAAAUUAUUACUGAGAAGGCACAUGAGGAUCACCCAUGUAAAAC [JR_Ex4_Sub029] (Eterna round: R97, puzzle: Exclusion 4)
Input ligand: FMN 200 uM
  apparent KD of MS2 coat protein: 122 nM
Input ligand: none
  apparent KD of MS2 coat protein: 104 nM

## CUUUUUUGAGGAUAUUAGUAGUAAAUAAAUAAAAUUACUACUGAGAAGGCACAUGAGGAUCACCCAUGUUCCUC [salish99_ex4_r3_046] (puzzle: Exclusion 4)
[1]
  apparent KD of MS2 coat protein: 17.6 nM
